In patent publication US20220387578A1:

What was measured:
[1] = target: H3 HA A/Texas/50/2012, recombinant soluble trimer (influenza A virus)
[2] = target: H1 HA A/Texas/36/1991 (H1N1), recombinant soluble trimer (influenza A virus)
[3] = target: H1 HA A/Solomon Islands/03/2006 (H1N1), recombinant soluble trimer (influenza A virus)

| Substance | EC50 [1] | EC50 [2] | EC50 [3] | EC50 relative to wild type rFluA-20 [3] |
| --- | --- | --- | --- | --- |
| rFluA-20 heavy chain mutant C101A (antibody) | 0.39 µg/mL | 0.15 µg/mL | 0.2 µg/mL | – |
| rFluA-20 light chain mutant N53A (antibody) | 0.09 µg/mL | 0.04 µg/mL | 0.05 µg/mL | – |
| rFluA-20 light chain mutant Q55A (antibody) | – | 0.23 µg/mL | – | > 100 fold |
